Reference: US9371519B2, “Complex type sugar chain hydrolase” (National Institute of Advanced Industrial Science and …, priority 2011, dated 2016)

B1: Endo-Cp: endo-β-N-acetylglucosaminidase from Candida parapolymorpha DL-1 ATCC26012, amino acid sequence SEQ ID NO. 5, 745 amino acids (protein, listed as Candida parapolymorpha)
chain: MPRNTAKHSSLPQTNLPLSSLESSFFDSLDELANWERRIHEKSFELDELNKPTEKLAHYTRARQQSTSEDVKLLVCHDLKGGYQVNEDEDPLGYFPHPDGQHYFLQYPQLVDKFVYFSHHRVSIPPVSWINVCHRNAIKCLGTVIFEGNTYRDFEEADKLLTKQDGEYVFVRCLVALVEYFQFDGYLFNIETRFSNTRIASLLEPFLEQLRAELHVRNPSTELIWYDSYIYPENRVLYKNGVTEANYNFFSCCDSFFTNYWWNVKHLQDNIKNVGVLGSRLKVYAGYDVWGRGTMIGKGGYDSALACQMIKKYRSNVALFAPAWTYEYLARKDFTQNDTRFWIGLFDGESSMATTFKPYSSPLYKINDSNFVFYTNFGSGEGCAFYECGEKVYRDNWVNGSLQMEIPYAIHTRNKNGIQWTLSKEDSFHGGSCVEIKYNEVVDDKGYQVFNNQTINSFSLFSFVQDCSFPTVNVKLTYKLNHKTKSFFKLKIGYYIERRYRTVQKVRSGCLVVPLLSTNDQWFTIEEPFHVSLQNSHEFIVLDSATIFYEETEDPFMRAHVVEDQSTSSVIDNEEYEKLMNSEIYFDDEDEDWILVPSDISMESTDNGGRENHTWKVISNQIRKKHPKSHPSTSPVLKLGELAIINANDYPSDSFFKLMPVNSIDVRRWEGKILLIWKTNQDSVLYHLIFVDDVFQGISLVSKFVFEDQAVDEKSFKTKSGGSTKVRIDTVNRLGILVKGTDM
B2: Endo-Pa: endo-β-N-acetylglucosaminidase from Pichia anomala ATCC36904, amino acid sequence SEQ ID NO. 9, 656 amino acids (protein, listed as Pichia anomala)
chain: MQHDHAAIKFEEDSISSQRFSSLDEVEKWYNTKNRSPLDDLRIPRESLSHYNRFRDNNDEIKVLVCHDFKGNYQEGEDENPLGYFPHSSGQHYFIQFPSLVDLFIFFSHYKIAVPPVSWINSLHRQGIPVLGTLIFEGTDVSESDKLLEKNENGDFKYLEILCELVRHYGFDGWLVNMESHFSSVAKAQDLLLFDEALRSTLHLKVPGSKLIWYDSLITQKNRVFYQNAVNEWNYDHFSTSDLFFTNYWWNEEDLKRNILNIGLQGVKQKLFVGVDIWGRGSRIGNGGFESGLAINYLKRYSTNVALFAPAWTYENFEEDQFLIKDRKFWIGDQTSDETGGSVATYVSHYTTPVYVKDQNVKFYTNFSVGEGTKYRVFAHTVFKNNWVNGNLQLPTPIIDNEKRIDIYYKESFNGGSSLKVTQRNSILNDGKSNILQLFSFKNDIHSNNLNVSVSFKYLSEIPLNSTFQLEIKFYIERRYRSVTRVRDGTFKLPLAFSNKNWKYIETSFALPRLQIREHFVLEGLQIRWVDNVDELSSSIGTSGDFTESWIIVPQNSDPNAVYELLIGDLLVEGIKTANGNIDAVTKLSRKITLDSRSILATWKDDTEVLYWIIYVNAKFLGIAHKSLWRVQRGDKLRVDVFTRSGKLVKGEDIFI
B3: Endo-Zr: endo-β-N-acetylglucosaminidase from Zygosaccharomyces rouxii ATCC2623, amino acid sequence SEQ ID NO. 13, 639 amino acids (protein, listed as Zygosaccharomyces rouxii)
chain: MKRINQVPGKPEITSLYFDDLNSLQRWFDKGFMDSRDLSNVPKERYSNYVKFEKDSIITIPNLSARKTEIIVCHDFKGGYQSGHDLYPNGQYGTESCKPYSLRYPEIVDKFVYFSHHCVTIPPSPWTNYLHRHSIPVLGTLILEHYPHNGELFKKNAKGEFLYVKYLVELCRKFHFEGWLINFETVFGNNSKQVIPFLRELTARVECEIYGGSVIWYDAFTTFSNKPSHQNEVNLFNYDAYENSSQFMTNYMWDSHNVGNSLRNVGALGMHSHVALGVDVWGRNMQVCRGGFESNIAIYYAKRFGTNAVIFAPGWTYENFGEDQFYEKDDIFWGNIKSTLQLDSYSDSQLSSWFVSESKKTRYFTTFFSTGSGNFFNLNGRRISNDNWVQLGLSTPFPVNSHSYLSFKDSFVGGSCLALPLSPMENGKLHLFRFEQFIKDQQKTSDSEIRVKLSYKSLGALPPVKLVIKCFVIRRGKRSKTILKVDDVSLVLPLSHSACQTAQGSTKWAVVEQIVPLPSLESRFLEEYYVEDAHLEWTMDNNHDEWLMVPERTEDLDCKLLIGSLCLEIGPHEDNNKRQIVRNGPQLSWQDNESSFMWLKLQDGKLDSVLFTPTTKVNGKQPTILECGRNGTLKFVVKK
B4: Endo-Om: endo-β-N-acetylglucosaminidase from methylotrophic yeast Ogataea minuta IFO10746, amino acid sequence SEQ ID NO. 1, 772 amino acids (protein, listed as Ogataea minuta)
chain: MAQSQLLGGAVRPVFFDKLEELRRWHTQSANLSRESELDSLNVATEPFSSYERAQTGSGSRSSEPVPGDKEDPPIKLMVCHDFKGGYQDYEDAQPLGYFPHPTGSRYFLQYPQLIDQFVYFSHHRVTVPPVNWINFCHRNGIKCFGTVIFEGNASKDFEELDRLVSRDEKGDFVFVDALIKLAAHYGFDGYLLNIETTFSNTKIAADLEPFAEQLKSGLHCLDSKNELIWYDSYVFPANKVSYTNGVTESNYNFFSLSDAFFSNYWWNIKNLQENIKNVGVLGVQKKIYVGYDVWGRGTLVGKGGFDSSLACKMIAKFKSNVALFAPAWTYESLGPKDFNQNDARFWIGLFENESSISSTVPPHSSAVYKINESSFIFYTNFSSGEGNRFFSKGSEVYRKNWVNGSLQFDLPIDLHRKDKNGLQWALDKSDAFHGGACLEIKYSEIKDENGYQIFNNQMVSDFTLFNFTKECHFPTVNVKVTYKLNHKTKSTFKIKIKYIIERRFRSVQTVRTGYLTIPLLSTSGKWFTVEESFQINLQTSHEYIVLESAHVTYDEDRSADSFFRSYIVEDSAITSVIDNEEYEKLINSEIYNDDEDEDWILVPSDVSISSSESQSNDSKTQYLGRKLFGNKSTPKTRTLEGTAPLLRIGEFAIISANNYPSSNFLAVTSVKSIESSRLEGDSLVLLNWQVGEGHQKGVCYYIIYVNGAVVGLSVAPKFIYQDTELASENSASARSNYKKSGLGSSSDRKSKVRVDSVDKLGNVFTGSEVWV

Experiment: Hydrolysis activity for various PA-labeled sugar chains (HPLC peak area ratio, relative to M8A)
Format: biochemical
Settings: substrate drawing 1/drawing 14/drawing 27/drawing 40 (M3B structure); M8A = 100%; 1 μM substrate, pH 5.3, 30° C.
Method: (§1) Using the Endo-Om partially purified enzyme solution of the present invention, hydrolysis activity for various PA-labeled commercially available sugar chains (TaKaRa-Bio Inc.) were measured, and the results are shown in the following (Table 1) together with the measurements in a literature on Endo-M (Non Patent Literature 6). The hydrolysis activity at that time was calculated from the peak area ratio between the PA-labeled sugar chain and its hydrolysate as substrates in HPLC, and the relative activity for the various sugar chains was calculated, with the hydrolysis activity for the sugar chain with an M8A structure set at 100%.
as §1, with “Endo-Cp” for “Endo-Om”, “2)” for “1)”
as §1, with “Endo-Pa” for “Endo-Om”, “3)” for “1)”
as §1, with “Endo-Zr” for “Endo-Om”, “4)” for “1)”
Comparison of hydrolysis activity for PA-labeled sugar chains having various structures was carried out as follows. A reaction solution containing a sodium acetate buffer at final concentration of 100 mM (pH 5.3), 0.5 M of NaCl, 1 μM of any of various PA-labeled sugar chains (TaKaRa-Bio Inc.), and an Endo-Om purified enzyme solution (total volume: 10 μl) was incubated at 30° C. for 3 to 12 hours, and heated at 95° C. for 5 minutes thereby stopping the enzyme reaction. The reaction solution was subjected to HPLC, and enzymatic activity was calculated from the peak area ratio between the PA-labeled sugar chain as the substrate and its hydrolysate. The column used herein was Cosmosil 5C18-ARII (2.0.150 mm, Nacalai Tesque, Inc.), the solvents were a 0.1 M ammonium acetate buffer (pH 4.0: solvent A), a 0.1 M ammonium acetate buffer (pH 4.0), and 0.5% 1-butanol (solvent B). Linear gradient elution was carried out using the solvent B: 5%-50% at a flow rate of 0.5 ml/min over a period of 24 minutes, and detection was carried out using a fluorescence detector (excitation wavelength 320 nm, and fluorescence wavelength 400 nm). The enzymatic activity was calculated with the activity hydrolyzing 1 μmol of the PA-labeled sugar chain in 1 minute under the above-described reaction conditions as 1 Unit, and the relative activity for various sugar chains were calculated with the hydrolysis activity for the sugar chain having an M8A structure as 100%. […]

In order of rising “Relative activity (hydrolysis activity for PA-labeled sugar chain)” value (from here on “Relative activity”):
1. B1  37.3%
2. B4  55.9%
3. B3  85.7%
4. B2  152%

Same assay, conditions: substrate drawing 2/drawing 15/drawing 28/drawing 41 (M5A structure per text); M8A = 100%; 1 μM substrate, pH 5.3, 30° C.

In order of rising “Relative activity” value:
1. B4  13.7%
2. B1  15.1%
3. B3  39.8%
4. B2  94.3%

Same assay, conditions: substrate drawing 4/drawing 17/drawing 30/drawing 43 (high-mannose type M8A-PA sugar chain, set at 100%); 1 μM substrate, pH 5.3, 30° C.

In order of falling “Relative activity” value:
1. B1  100%
2. B2  100%
3. B3  100%
4. B4  100%

Same assay, conditions: substrate drawing 5/drawing 18/drawing 31/drawing 44 (M9A structure per text); M8A = 100%; 1 μM substrate, pH 5.3, 30° C.

In order of falling “Relative activity” value:
1. B2  115%
2. B4  81.3%
3. B3  33.4%
4. B1  21.6%

Same assay, conditions: substrate drawing 6/drawing 19/drawing 32/drawing 45; M8A = 100%; 1 μM substrate, pH 5.3, 30° C.

In order of rising “Relative activity” value:
1. B1  0.4%
2. B4  0.8%
3. B2  4.0%

Same assay, conditions: substrate drawing 7/drawing 20/drawing 33/drawing 46; M8A = 100%; 1 μM substrate, pH 5.3, 30° C.

In order of falling “Relative activity” value:
1. B2  35.4%
2. B3  13.2%
3. B4  5.9%
4. B1  4.7%

Same assay, conditions: substrate drawing 8/drawing 21/drawing 34/drawing 47; M8A = 100%; 1 μM substrate, pH 5.3, 30° C.

In order of falling “Relative activity” value:
1. B2  36.3%
2. B3  17.3%
3. B4  1.6%
4. B1  1.1%

Same assay, conditions: substrate drawing 9/drawing 22/drawing 35/drawing 48; M8A = 100%; 1 μM substrate, pH 5.3, 30° C.

In order of rising “Relative activity” value:
1. B1  3.1%
2. B4  4.6%
3. B3  30.0%
4. B2  40.5%
